± gives the uncertainty stated by the source.
Assay: self-splicing fitness, log relative to wild type (ln ratio); higher = more splicing; Tetrahymena group I intron in knt gene, E. coli kanamycin selection, DiMSum; sequences stand for … in CUCUCU…GGAGGGAAAAGUUAUCAGGCAUGCACCUGGUAGCUAGUCUUUAAACCAAUAGAUUGCAUCGGUUUAAAAGGCAAGACCGUCAAAUUGCGGGAAAGGGGUCAACAGCCGUUCAGUACCAAGUCUCAGGGGAAACUUUGAGAUGGCCUUGCAAAGGGUAUGGUAAUAAGCUGACGGACAUGGUCCUAACCACGCAGCCAAGUCCUAAGUCAACAGAUCUUCUGUUGAUAUGGAUGCAGUUCACAGACUAAAUGUCGGUCGGGGAAGAUGUAUUCUUCUCAUAAGAUAUAGUCGGACCUCUCCUUAAUGGGAGCUAGCGGAUGAAGUGAUGCAACACUGGAGCCGCUGGGAACUAAUUUGUAUGCGAAAGUAUAUUGAUUAGUUUUGGAGUACUCGUGGUCG
Outline: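 Six replicate transformations of E. coli BL21(DE3) with a pET-22b(+) library were grown overnight at 37°C or 30°C. The library randomised all eight P1ex-region intron nucleotides, the intron lying in the knt kanamycin-resistance gene, and plates were LB agar with or without 25 μg/mL kanamycin plus 100 μg/mL carbenicillin, 50 μM IPTG and 0.2% rhamnose. Pooled colonies were amplicon-sequenced on an Illumina HiSeq 2500, and fitness is the DiMSum error-weighted combination of wild-type-normalised replicate fold changes, kanamycin versus none.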

| Sequence | self-splicing fitness (ln) (30 °C) | self-splicing fitness (ln) (37 °C) |
| --- | --- | --- |
| CUUAAGCAAUAUUACGAUAC | -2.53 ± 0.36 | -2.33 ± 0.5 |
| GGGAAGCAAUAUUACGGGUU | -3.15 ± 0.21 | -1.36 ± 0.15 |
| UCGUAGCAAUAUUACGUUUG | -3.19 ± 0.18 | -1.56 ± 0.2 |
| GCACAGCAAUAUUACGUUCG | -0.717 ± 0.065 | -0.441 ± 0.085 |
| CAAAAGCAAUAUUACGUUGA | -3.14 ± 0.14 | -2.32 ± 0.12 |
| GAGAAGCAAUAUUACGAACU | -0.774 ± 0.085 | -0.288 ± 0.092 |
| AUGUAGCAAUAUUACGGAUA | -1.43 ± 0.16 | -1.83 ± 0.28 |
| GCGUAGCAAUAUUACGCCAA |  | -2.7 ± 0.48 |
| ACCUAGCAAUAUUACGCCAG | -1.83 ± 0.22 |  |
| UCAUAGCAAUAUUACGUUCU | -2.79 ± 0.27 | -2.32 ± 0.21 |
| GAGAAGCAAUAUUACGCUCU | -3.26 ± 0.35 | -2.25 ± 0.44 |
| UGUAAGCAAUAUUACGUCCA | 0.388 ± 0.1 | -0.132 ± 0.12 |
| AAUCAGCAAUAUUACGGCGA | -0.0143 ± 0.073 | 0.557 ± 0.093 |
| CAUAAGCAAUAUUACGCAAA | -2.93 ± 0.44 | -2.46 ± 0.41 |
| CGGCAGCAAUAUUACGCUUC |  | -1.56 ± 0.29 |
| CUAGAGCAAUAUUACGGCCA | -2.59 ± 0.49 |  |
| GAUGAGCAAUAUUACGGCUC | -0.914 ± 0.26 | -1.12 ± 0.32 |
| GAAUAGCAAUAUUACGUGCU | -2.04 ± 0.14 | -0.626 ± 0.12 |
| GGGCAGCAAUAUUACGAGCU | -2.69 ± 0.22 | 0.481 ± 0.13 |
| AGUAAGCAAUAUUACGGACU | -1.57 ± 0.15 | 0.25 ± 0.17 |
| GGAUAGCAAUAUUACGGGCA | -2.6 ± 0.26 | -0.844 ± 0.11 |
| CUAAAGCAAUAUUACGUCCA | -3.01 ± 0.19 | -2.79 ± 0.31 |
| CGUAAGCAAUAUUACGUUCG | -0.989 ± 0.056 | -0.453 ± 0.078 |
| GGAUAGCAAUAUUACGCGGG | -3.3 ± 0.17 | -0.931 ± 0.11 |
| ACAUAGCAAUAUUACGUCUU | -1.33 ± 0.077 | -0.302 ± 0.084 |

| Sequence | self-splicing fitness (ln) (30 °C) | self-splicing fitness (ln) (37 °C) |
| --- | --- | --- |
| GGUGAGCAAUAUUACGGGAU | -3.28 ± 0.41 | -2.62 ± 0.34 |
| GAAGAGCAAUAUUACGACGU | -0.922 ± 0.16 | -0.536 ± 0.18 |
| UUUUAGCAAUAUUACGUCCC |  | -1.78 ± 0.48 |
| GGGCAGCAAUAUUACGUAGU | -0.605 ± 0.086 | -0.727 ± 0.11 |
| ACAUAGCAAUAUUACGUACU | -0.24 ± 0.077 | 0.46 ± 0.12 |
| UUCCAGCAAUAUUACGUUCC |  | -1.84 ± 0.42 |
| GGUGAGCAAUAUUACGGAUA | -2.24 ± 0.18 | -1.88 ± 0.22 |
| AAUAAGCAAUAUUACGACUA | -0.696 ± 0.12 | -0.486 ± 0.093 |
| CCCCAGCAAUAUUACGGAAA | -4.13 ± 0.34 | -1.64 ± 0.16 |
| AAAGAGCAAUAUUACGAUAA | -3.45 ± 0.18 | -2.2 ± 0.22 |
| CGCGAGCAAUAUUACGCAGU | -2.99 ± 0.16 | -2.77 ± 0.17 |
| UAGUAGCAAUAUUACGCCCG | -0.0603 ± 0.35 | 0.255 ± 0.44 |
| GUAGAGCAAUAUUACGCCCA | -1.56 ± 0.2 | -0.471 ± 0.25 |
| CACCAGCAAUAUUACGCUGA | -3.31 ± 0.17 | -2.68 ± 0.15 |
| CCGCAGCAAUAUUACGCAAA | -3.29 ± 0.21 | -2.15 ± 0.22 |
| UUUGAGCAAUAUUACGAGUA |  | -1.86 ± 0.21 |
| CCCUAGCAAUAUUACGGCAC | -3.42 ± 0.21 | -1.5 ± 0.2 |
| UGUGAGCAAUAUUACGCCCU | -1.54 ± 0.44 | -0.113 ± 0.36 |
| ACCCAGCAAUAUUACGUAUU | -1.93 ± 0.069 | -0.714 ± 0.077 |
| ACCGAGCAAUAUUACGUUAC | -4.23 ± 0.22 | -2.66 ± 0.18 |
| ACGAAGCAAUAUUACGUCGG | -1.67 ± 0.1 | -1.65 ± 0.11 |
| CCCCAGCAAUAUUACGGAGC | -3.08 ± 0.15 | -2.83 ± 0.23 |
| GUACAGCAAUAUUACGGUAG | -1.31 ± 0.062 | -0.303 ± 0.068 |
| UGCUAGCAAUAUUACGCUAC | -2.72 ± 0.48 | -2.32 ± 0.47 |
| GACCAGCAAUAUUACGGUAC | -2.05 ± 0.09 | -1.75 ± 0.092 |

| Sequence | self-splicing fitness (ln) (30 °C) | self-splicing fitness (ln) (37 °C) |
| --- | --- | --- |
| UUAAAGCAAUAUUACGAAUG | -0.609 ± 0.096 | 0.0465 ± 0.14 |
| UUAUAGCAAUAUUACGGGUU | -3.8 ± 0.26 | -1.13 ± 0.15 |
| CGUAAGCAAUAUUACGGCAC | -3.68 ± 0.29 | -0.595 ± 0.22 |
| AUACAGCAAUAUUACGACAA | -1.19 ± 0.093 | -0.929 ± 0.12 |
| CGAGAGCAAUAUUACGGUGC | -3.73 ± 0.25 | -3.43 ± 0.46 |
| UCAUAGCAAUAUUACGGAUC | -3.73 ± 0.28 | -2.38 ± 0.22 |
| UUCCAGCAAUAUUACGAUUU | -2.34 ± 0.088 | -0.783 ± 0.1 |
| UAAAAGCAAUAUUACGAAGU | -2.95 ± 0.29 | -2.23 ± 0.21 |
| UAUAAGCAAUAUUACGCACG | -0.779 ± 0.16 | -0.566 ± 0.17 |
| CGUAAGCAAUAUUACGGUGU | -4.11 ± 0.25 | -3.24 ± 0.21 |
| UACCAGCAAUAUUACGGUCG | -0.769 ± 0.064 | 0.485 ± 0.091 |
| GGCCAGCAAUAUUACGCCCA | -2.11 ± 0.35 | -0.809 ± 0.25 |
| UGACAGCAAUAUUACGGGAC | -4.05 ± 0.31 | -2.31 ± 0.22 |
| GACCAGCAAUAUUACGAUCG | -0.875 ± 0.091 | -0.444 ± 0.1 |
| CGCAAGCAAUAUUACGUCAA | -3.1 ± 0.12 | -2.93 ± 0.14 |
| CCGUAGCAAUAUUACGGCUG | -2.46 ± 0.21 | -1.19 ± 0.17 |
| CCCAAGCAAUAUUACGUGGU | -3.27 ± 0.087 | -1.86 ± 0.084 |
| GAUAAGCAAUAUUACGGAAU | -3.09 ± 0.14 | -2.28 ± 0.14 |
| CUACAGCAAUAUUACGCAUG | -1.48 ± 0.086 | -1.44 ± 0.079 |
| GGUCAGCAAUAUUACGUUGC | -1.98 ± 0.098 | -0.999 ± 0.1 |
| AAAUAGCAAUAUUACGCUGC | -2.73 ± 0.2 | -1.86 ± 0.41 |
| AUGUAGCAAUAUUACGUGUC | -3.79 ± 0.31 | -2.81 ± 0.26 |
| ACAGAGCAAUAUUACGUGUA | -3.11 ± 0.15 | -2.62 ± 0.14 |
| GAGUAGCAAUAUUACGAGAU | -4.02 ± 0.29 | -2.51 ± 0.28 |
| UGGCAGCAAUAUUACGUUAG | -0.283 ± 0.087 | 0.37 ± 0.12 |

| Sequence | self-splicing fitness (ln) (30 °C) | self-splicing fitness (ln) (37 °C) |
| --- | --- | --- |
| ACAGAGCAAUAUUACGUAAA | -3.71 ± 0.16 | -2.09 ± 0.13 |
| GGUCAGCAAUAUUACGCAUA | -0.703 ± 0.088 | -0.214 ± 0.11 |
| GAUAAGCAAUAUUACGAGAG | -2.84 ± 0.26 | -3.04 ± 0.4 |
| AAUCAGCAAUAUUACGGUUU | -1.35 ± 0.056 | -0.0658 ± 0.064 |
| GGCUAGCAAUAUUACGGAAU | -0.705 ± 0.072 | -0.0885 ± 0.1 |
| CUCGAGCAAUAUUACGAAAC | -3.52 ± 0.33 | -1.99 ± 0.33 |
| CCUGAGCAAUAUUACGGUAU | -3.02 ± 0.16 | -2.61 ± 0.21 |
| AGGCAGCAAUAUUACGGCUU | -2.17 ± 0.12 | -1.83 ± 0.16 |
| AUCAAGCAAUAUUACGGAAG | -2.78 ± 0.11 | -2.01 ± 0.12 |
| GUUAAGCAAUAUUACGCGAU | -3.1 ± 0.21 | -2.65 ± 0.29 |
| UCCAAGCAAUAUUACGAAAC | -3.13 ± 0.22 | -2.95 ± 0.35 |
| AUCCAGCAAUAUUACGUACU | -1.56 ± 0.14 | -0.416 ± 0.15 |
| CUCGAGCAAUAUUACGGUCC | -3 ± 0.36 | -2.33 ± 0.45 |
| GAUGAGCAAUAUUACGCCAA | -2.45 ± 0.26 | -2.61 ± 0.29 |
| CCACAGCAAUAUUACGACCU | -3.94 ± 0.3 | -2.82 ± 0.18 |
| ACUGAGCAAUAUUACGUUCC | -3.65 ± 0.35 | -2.52 ± 0.24 |
| AUUCAGCAAUAUUACGACUC | -0.805 ± 0.19 | 0.11 ± 0.19 |
| CCUUAGCAAUAUUACGGGCC | -2.94 ± 0.31 | -2.54 ± 0.35 |
| UCCAAGCAAUAUUACGGCCG | -2.7 ± 0.2 | -1.41 ± 0.16 |
| GGCCAGCAAUAUUACGACAC | -0.242 ± 0.1 | 0.0601 ± 0.17 |
| UCGUAGCAAUAUUACGCAGG | -2.49 ± 0.18 | -2.17 ± 0.21 |
| UAGUAGCAAUAUUACGUCUU | -0.75 ± 0.097 | -0.388 ± 0.11 |
